Test results: IntAct's records for PubMed 24034250

B1: Apoptosis regulator Bcl-2 homolog (Murid herpesvirus 4 (MuHV-4)), P89884 (parent)
chain: MSHKKSGTYWATLITAFLKTVSKVEELDCVDSAVLVDVSKIITLTQEFRRHYDSVYRADYGPALKNWKRDLSKLFTSLFVDVINSGRIVGFFDVGRYVCEEVLCPGSWTEDHELLNDCMTHFFIENNLMNHFPLEDIFLAQRKFQTTGFTFLLHALAKVLPRIYSGNVIYV

Variants of: B1
Conditions: with becn1_human BECN1, Q14457
Sequence of becn1_human BECN1, Q14457 (Q14457 whole entry): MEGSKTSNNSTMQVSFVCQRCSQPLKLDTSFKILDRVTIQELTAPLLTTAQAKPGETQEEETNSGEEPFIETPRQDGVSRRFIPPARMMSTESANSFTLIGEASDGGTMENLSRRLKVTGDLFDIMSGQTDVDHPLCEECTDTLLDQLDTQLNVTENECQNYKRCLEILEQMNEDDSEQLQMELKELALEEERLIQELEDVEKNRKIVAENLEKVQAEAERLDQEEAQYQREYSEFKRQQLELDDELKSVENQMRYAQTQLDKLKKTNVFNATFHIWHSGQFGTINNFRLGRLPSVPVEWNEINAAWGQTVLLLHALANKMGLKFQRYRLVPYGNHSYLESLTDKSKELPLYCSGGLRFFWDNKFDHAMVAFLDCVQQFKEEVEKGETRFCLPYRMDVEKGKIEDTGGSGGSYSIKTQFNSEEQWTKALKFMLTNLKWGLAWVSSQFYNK

Row | Variant | effect of a mutation on the interaction
1 | MSHKKSGTYWATLITAFLKTVSKVEELDCVDSAVLVDVSKIITLTQEFRRHYDSVYRADYGPALKNWKRDLSKLFTSLFVDVINAAAIVGFFDVGRYVCEEVLCPGSWTEDHELLNDCMTHFFIENNLMNHFPLEDIFLAQRKFQTTGFTFLLHALAKVLPRIYSGNVIYV [S85A;G86A;R87A] | decreasing interaction strength

Variants of: B1
Conditions: with bax_human BAX

Row | Variant | effect of a mutation on the interaction
2 | MSHKKSGTYWATLITAFLKTVSKVEELDCVDSAVLVDVSKIITLTQEFRRHYDSVYRADYGPALKNWKRDLSKLFTSLFVDVINAAAIVGFFDVGRYVCEEVLCPGSWTEDHELLNDCMTHFFIENNLMNHFPLEDIFLAQRKFQTTGFTFLLHALAKVLPRIYSGNVIYV [S85A;G86A;R87A] | decreasing interaction strength
